Assay results: patent publication US20040170622A1, “Methods and compositions for modulating XBP-1 activity” (President and Fellows of Harvard College, priority 2002, published 2004)

How the values were obtained:
IL-6R = target: T1, IL-6R (Homo sapiens, UniProt P08887); conditions: IL-6R alone; read-out: Kd (low affinity); cited from earlier work
T1 sequence (P08887 20-468): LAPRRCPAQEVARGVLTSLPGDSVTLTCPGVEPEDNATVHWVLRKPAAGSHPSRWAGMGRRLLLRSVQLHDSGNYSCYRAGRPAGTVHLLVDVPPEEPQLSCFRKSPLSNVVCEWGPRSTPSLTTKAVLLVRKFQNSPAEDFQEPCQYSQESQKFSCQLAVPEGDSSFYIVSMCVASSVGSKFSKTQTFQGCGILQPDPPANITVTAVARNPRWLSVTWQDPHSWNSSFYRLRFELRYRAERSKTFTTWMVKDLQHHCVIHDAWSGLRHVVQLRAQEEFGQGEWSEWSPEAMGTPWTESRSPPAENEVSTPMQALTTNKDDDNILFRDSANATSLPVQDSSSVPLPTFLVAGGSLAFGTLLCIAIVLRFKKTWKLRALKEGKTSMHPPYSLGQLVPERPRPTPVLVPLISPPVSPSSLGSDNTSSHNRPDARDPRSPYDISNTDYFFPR

[1] = target: T2, IL-6/IL-6 R complex with gp130 (Homo sapiens, UniProt P08887); conditions: IL-6/IL-6R complex on the membrane with gp130; read-out: Kd (high affinity); cited from earlier work
T2 sequence (P08887 20-468): T1 sequence (P08887 20-468)
T2 sequence (P40189 23-918 partner): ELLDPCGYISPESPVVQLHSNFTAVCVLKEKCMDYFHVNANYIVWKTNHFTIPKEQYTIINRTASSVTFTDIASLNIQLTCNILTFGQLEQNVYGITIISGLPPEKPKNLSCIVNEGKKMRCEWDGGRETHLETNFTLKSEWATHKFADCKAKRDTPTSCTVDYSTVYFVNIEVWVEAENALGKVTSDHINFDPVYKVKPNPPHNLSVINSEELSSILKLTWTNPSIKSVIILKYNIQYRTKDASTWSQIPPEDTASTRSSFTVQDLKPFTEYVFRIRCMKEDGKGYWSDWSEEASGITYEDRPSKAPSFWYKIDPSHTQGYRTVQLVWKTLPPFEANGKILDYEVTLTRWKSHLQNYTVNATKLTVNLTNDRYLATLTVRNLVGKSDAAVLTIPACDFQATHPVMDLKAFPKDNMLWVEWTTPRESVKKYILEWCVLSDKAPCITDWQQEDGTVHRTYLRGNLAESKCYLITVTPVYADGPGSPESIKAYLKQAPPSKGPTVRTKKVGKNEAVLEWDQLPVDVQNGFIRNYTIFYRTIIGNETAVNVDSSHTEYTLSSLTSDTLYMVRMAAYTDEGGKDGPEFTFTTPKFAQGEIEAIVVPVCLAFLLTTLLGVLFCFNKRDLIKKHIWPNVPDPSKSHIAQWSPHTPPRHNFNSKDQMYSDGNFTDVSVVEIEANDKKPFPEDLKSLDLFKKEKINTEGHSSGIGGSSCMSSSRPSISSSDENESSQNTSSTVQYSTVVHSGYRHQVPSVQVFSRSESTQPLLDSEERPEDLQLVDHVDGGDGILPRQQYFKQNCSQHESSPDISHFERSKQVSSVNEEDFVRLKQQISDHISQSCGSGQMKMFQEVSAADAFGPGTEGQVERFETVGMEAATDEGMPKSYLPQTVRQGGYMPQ

XBP-1 mRNA splicing = XBP-1 mRNA splicing and XBP-1s protein in purified murine B cells (RT-PCR, Western blot); type: cell-based; conditions: for XBP-1 mRNA splicing (RT-PCR): purified murine B cells, 24-72 h
Description: (§1) Mouse splenocytes or purified B cells (purified mature B cells were isolated from spleen and lymph nodes by magnetic CD43 depletion or B220 magnetic bead selection, Miltenyi Biotech, Auburn Calif.) were plated at 1×10^6 cells/ml in complete media containing RPMI 1640 supplemented with 10% fetal calf serum (FBS)(Hyclone Laboratories), glutamine (2 mM), penicillin (50 units/ml), streptomycin (50 μg/ml), Hepes (100 mM), nonessential amino acids (1×) sodium pyruvate (1 mM) and β-ME (50 μM) and stimulated with anti-CD40(1 μg/ml)(Pharmigen) or LPS (20 μg/ml)(Sigma). Cytokines (R&D Systems, Minneapolis, Minn.) were used at IL-4 (20 ng/ml), IL-2 (20 ng/ml), Il-5 (20 ng/ml), IL-6 (20 ng/ml ), IL-10 (20 ng/ml ) and IL-13 (20 ng/ml). Stimulated B cells were split to a cell concentration of 1×10^6 cells/ml with fresh media every 24 h. The BCL1 (CWS13.20-3B3 ATCC CRL 1699) cell line was cultured in RPMI media supplemented with 10% FBS, gentamicin (20 μg/ml), and β-ME (50 μM). To induce differentiation cells were plated at 2×10^5 cells/ml and treated with recombinant mouse IL-2 and IL-5 (20 ng/ml) (R&D systems).
Total RNA was isolated using TriZo1 (Gibco-BRL) or Qiashedder/Rneasy RNA purification columns (Quiagen). Northern Blots were performed as described (Rengarajan et al., 2000 Immunity. 12:293-300). […] The following probes were used after ^32P-radiolabeling with the ReadyPrime labeling system (Amersham-Pharmacia): XBP-1 (15-830 of the murine coding region), GRP94 and GRP78 (both a kind gift of R. J. Kaufman Univ. of Michigan (Lee et al., 2002)), Blimp (Nco1-Sca1 fragment), c-myc cDNA and Il-6 cDNA . […]
The UPR is induced in cells that detect irregular amounts of unfolded or unassembled protein in the lumen of the ER. […] Total RNAs were prepared at the indicated time point and XBP-1 mRNA levels (a) were determined by Northern blot analysis with γ-actin control (b). […] XBP-1s protein levels were also measured by Western blot analysis (d). […] In panel (C) XBP-1s protein levels were measured by Western blot analysis in the cells stimulated as indicated for 72 hours.

spliced XBP-1 = test: Inhibition of transactivation function of spliced XBP-1, luciferase in NIH 3T3 cells; type: cell-based; conditions: NIH 3T3, 200 ng spliced XBP-1, 200 ng mutant
Description: Versions of XBP-1 with various deletions of the C terminal transcription activating domain (e.g., consisting of the N terminal 225, 188, or 136 amino acids of the spliced form of XBP-1) that expressed high levels of protein by western analysis were created. The proteins were tested for their ability to inhibit the transactivation function of spliced XBP-1. Both the 188 and 136 N terminal mutants were extremely potent inhibitors (effective at a 1:1 ratio) of the spliced XBP-1. NIH 3T3 cells expressing XBP-1uc constructs were transfected with 200 ng of spliced XBP-1, yielding a relative luciferase activity of 44.5. 200 ng of XBP-N188 lowered the luciferase level to 1.8 and 200 ng of XBP-N136 lowered the luciferase activity to 2.2.

XBP-1 mRNA = XBP-1 mRNA induction by cytokines in purified splenic B cells (Northern blot); type: cell-based, mouse
Description: as §1
Total RNA was isolated using TriZo1 (Gibco-BRL) or Qiashedder/Rneasy RNA purification columns (Quiagen). Northern Blots were performed as described (Rengarajan et al., 2000 Immunity. 12:293-300). Briefly, 7-10 μg RNA were electrophoresed on 1.2% agarose, 6% formaldehyde gels transferred onto Genescreen membrane (NEN) and covalently bound to the membrane using UV Stratalinker (Stratagene). The following probes were used after ^32P-radiolabeling with the ReadyPrime labeling system (Amersham-Pharmacia): XBP-1 (15-830 of the murine coding region), GRP94 and GRP78 (both a kind gift of R. J. Kaufman Univ. of Michigan (Lee et al., 2002)), Blimp (Nco1-Sca1 fragment), c-myc cDNA and Il-6 cDNA . […]
Since XBP-1 is required for terminal B cell differentiation, it was important to identify the stimuli that regulate XBP-1 gene expression. A plethora of cytokines (IL-2, IL-4, IL-5, IL-6, IL-10, IL-13) has been implicated in plasma cell differentiation both in vitro and in vivo (reviewed in Calame, K. L. (2001 Nat. Inimunol. 2: 1103-1108; Liu, Y. J., and Banchereau, J. (1997). Sem Immunol 9: 235; Zubler, 1997Sem. Hematol 34:13). It was possible that these cytokines effected terminal B cell differentiation by modulating XBP-1 gene expression. Thus, the ability of these cytokines to upregulate XBP-1 mRNA transcripts in B cells was tested. Purified splenic B cells were cultured for 24 h in the presence or absence of various cytokines and XBP-1 expression determined by Northern blot analysis. […] XBP-1 mRNA levels were determined by Northern blot analysis with γ-actin as control. […] XBP-1 mRNA levels were determined as above. […]

[2] = purified B cells treated with IL-4

IL-6: multi-functional cytokine; mature human IL-6 is a 185 amino acid polypeptide
Kd (IL-6R): ~1 nM
Kd [1]: ~0.01 nM

lipopolysaccharide [LPS]
spliced XBP-1 protein production (XBP-1 mRNA splicing; in the absence of other stimuli): competent to produce substantial amounts of spliced XBP-1 protein
XBP-1 mRNA splicing (RT-PCR) (XBP-1 mRNA splicing): an additional band of 145 bp corresponding to the spliced form of XBP-1 mRNA

B1: XBP-N188: XBP-1 deletion mutant consisting of the N terminal 188 amino acids of the spliced form (protein)
chain: MVVVAAAPSAATAAPKVLLLSGQPASGGRALPLMVPGPRAAGSEASGTPQARKRQRLTHLSPEEKALRRKLKNRVAAQTARDRKKARMSELEQQVVDLEEENHKLQLENQLLREKTHGLVVENQELRTRLGMDTLDPDEVPEVEAKGSGVRLVAGSAESAAGAGPVVTSPEHLPMDSDTVASSDSESD
relative luciferase activity (spliced XBP-1): 1.8

B2: XBP-N136: XBP-1 deletion mutant consisting of the N terminal 136 amino acids of the spliced form (protein, UniProt O35426 1-136, looked up, fragment)
chain: MVVVAAAPSAATAAPKVLLLSGQPASGGRALPLMVPGPRAAGSEASGTPQARKRQRLTHLSPEEKALRRKLKNRVAAQTARDRKKARMSELEQQVVDLEEENHKLQLENQLLREKTHGLVVENQELRTRLGMDTLD
modifications: XBP-1s
notes: XBP-1 deletion mutant consisting of the N terminal 136 amino acids of the spliced form
relative luciferase activity (spliced XBP-1): 2.2

B3: IL-4: multi-functional cytokine; recombinant IL-4 used at 20 ng/ml (protein, UniProt P05112 25-153, looked up)
Interleukin-4: HKCDITLQEIIKTLNSLTEQKTLCTELTVTDIFAASKNTTEKETFCRAATVLRQFYSHHEKDTRCLGATAQQFHRHKQLIRFLKRLDRNLWGLAGLNSCPVKEANQSTLENFLERLKTIMREKYSKCSS
time at which XBP-1 transcript increase is apparent (XBP-1 mRNA; [2]): ≤ 1 h
time of peak of XBP-1 transcripts (XBP-1 mRNA; [2]): around 8 h
XBP-1 transcript induction (XBP-1 mRNA; purified splenic B cells, cytokines 20 ng/ml, 24 h): induced a significant amount of XBP-1 ranscript
XBP-1 mRNA splicing (RT-PCR) (XBP-1 mRNA splicing): unable to induce splicing
